Stoichiometry N data for one molecule are collected here from PMC12586603.

A word on the stoichiometry N: it is the number of molecules, sites or subunits per partner or assembly.

This test deals with T1, 3xFLAG-HSF1, Q00613.
T1 chain: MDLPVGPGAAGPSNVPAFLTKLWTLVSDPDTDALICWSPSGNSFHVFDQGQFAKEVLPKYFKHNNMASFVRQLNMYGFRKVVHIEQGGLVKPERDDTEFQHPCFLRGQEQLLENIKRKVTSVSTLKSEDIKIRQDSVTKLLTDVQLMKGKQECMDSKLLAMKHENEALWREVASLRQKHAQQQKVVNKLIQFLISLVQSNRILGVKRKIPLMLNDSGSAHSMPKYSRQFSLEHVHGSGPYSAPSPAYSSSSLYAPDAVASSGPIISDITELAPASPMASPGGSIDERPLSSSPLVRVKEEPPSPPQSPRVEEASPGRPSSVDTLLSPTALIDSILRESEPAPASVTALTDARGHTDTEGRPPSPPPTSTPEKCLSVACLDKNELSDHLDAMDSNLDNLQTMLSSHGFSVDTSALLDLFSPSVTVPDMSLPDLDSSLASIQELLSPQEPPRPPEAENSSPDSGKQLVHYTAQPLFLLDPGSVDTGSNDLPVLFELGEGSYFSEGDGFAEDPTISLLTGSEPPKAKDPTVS
As to the kind of experiment: cross-linking; cell extracts from transfected 293T cells, in vitro cross-linking with 2 mM ethylene glycol bis(succinimidyl succinate) (EGS), immunoblot; with or without DBC1 overexpression. As to conditions: remark: other sources report otherwise. In general terms: In western blotting, separated proteins are transferred to a membrane and probed.

B1: 3xFLAG-HSF1, Q00613 1-529 (natural protein)
chain: MDLPVGPGAAGPSNVPAFLTKLWTLVSDPDTDALICWSPSGNSFHVFDQGQFAKEVLPKYFKHNNMASFVRQLNMYGFRKVVHIEQGGLVKPERDDTEFQHPCFLRGQEQLLENIKRKVTSVSTLKSEDIKIRQDSVTKLLTDVQLMKGKQECMDSKLLAMKHENEALWREVASLRQKHAQQQKVVNKLIQFLISLVQSNRILGVKRKIPLMLNDSGSAHSMPKYSRQFSLEHVHGSGPYSAPSPAYSSSSLYAPDAVASSGPIISDITELAPASPMASPGGSIDERPLSSSPLVRVKEEPPSPPQSPRVEEASPGRPSSVDTLLSPTALIDSILRESEPAPASVTALTDARGHTDTEGRPPSPPPTSTPEKCLSVACLDKNELSDHLDAMDSNLDNLQTMLSSHGFSVDTSALLDLFSPSVTVPDMSLPDLDSSLASIQELLSPQEPPRPPEAENSSPDSGKQLVHYTAQPLFLLDPGSVDTGSNDLPVLFELGEGSYFSEGDGFAEDPTISLLTGSEPPKAKDPTVS
The molecule B1 registered a stoichiometry N of 3.
